Drawing on paper PMC9352680, “A comprehensive thermodynamic model for RNA binding by the Saccharomyces cerevisiae Pumilio protein PUF4”, this text covers Kd for 29 molecules.

As usually defined, the Kd is the free concentration of one partner at which half of the binding sites on the other are occupied at equilibrium, for simple one-to-one binding. A high value points to a looser complex.

B1: Id_ii_S3_P3E.4_K3.3_C3.2_[C-2T]_[T-1C]_H3.3_A3.1_F3.1_T3.2_[T9G] (ssRNA)
RNA: ACAAACUCACACUAUAGAACAAAC
B2: Id_ii_S3_P3E.4_K3.3_C3.2_[C-2T]_[T-1A]_H3.3_A3.1_F3.1_T3.2_[A10T] (ssRNA)
RNA: ACAAACUAACACUAUAUUACAAAC
B3: Id_ii_S3_P3E.4_K3.3_C3.2_[C-2T]_H3.3_A3.1_F3.1_T3.2_[T9A] (ssRNA)
RNA: ACAAACUUACACUAUAAAACAAAC
B4: Id_ii_S3_P4E.3_K4.2_C4.2_[C-2G]_[T-1A]_H4.2_A4.1_F4.1_T4.2_[G10C]_[T11A] (ssRNA)
RNA: ACAAACGAUAUAUAUUACAACAAAC
B5: Id_ii_S3_P4E.3_K4.2_C4.2_[C-2G]_[T-1A]_H4.2_A4.1_F4.1_T4.2_[G10A]_[T11G] (ssRNA)
RNA: ACAAACGAUAUAUAUUAAGACAAAC
B6: Id_ii_S3_P3E.4_K3.3_C3.2_[T-1G]_H3.3_A3.1_F3.1_T3.2_[T9A] (ssRNA)
RNA: ACAAACCGACACUAUAAAACAAAC
B7: Id_ii_S3_P3E.4_K3.3_C3.2_[C-2T]_[T-1C]_H3.3_A3.1_F3.1_T3.2_[A10T] (ssRNA)
RNA: ACAAACUCACACUAUAUUACAAAC
B8: Id_ii_S3_P3E.4_K3.3_C3.2_[C-2A]_H3.3_A3.1_F3.1_T3.2_[T9C]_[A10T] (ssRNA)
RNA: ACAAACAUACACUAUACUACAAAC
B9: Id_ii_S3_P4E.3_K4.2_C4.2_[C-2G]_[T-1C]_H4.2_A4.1_F4.1_T4.2_[G10C]_[T11C] (ssRNA)
RNA: ACAAACGCUAUAUAUUACCACAAAC
B10: Id_ii_S3_P3E.4_K3.3_C3.2_[C-2A]_H3.3_A3.1_F3.1_T3.2_[T9A]_[A10C] (ssRNA)
RNA: ACAAACAUACACUAUAACACAAAC
B11: Id_ii_S3_P3E.4_K3.3_C3.2_[T-1G]_H3.3_A3.1_F3.1_T3.2_[T9C] (ssRNA)
RNA: ACAAACCGACACUAUACAACAAAC
B12: Id_ii_S3_P3E.4_K3.3_C3.2_H3.3_A3.1_F3.1_T3.2_[T9G]_[A10C] (ssRNA)
RNA: ACAAACCUACACUAUAGCACAAAC
B13: Id_ii_S3_P3E.4_K3.3_C3.2_H3.3_A3.1_F3.1_T3.2_[A10G] (ssRNA)
RNA: ACAAACCUACACUAUAUGACAAAC
B14: Id_ii_S3_P4E.3_K4.2_C4.2_[C-2G]_[T-1A]_H4.2_A4.1_F4.1_T4.2_[G10T]_[T11A] (ssRNA)
RNA: ACAAACGAUAUAUAUUAUAACAAAC
B15: Id_ii_S3_P3E.4_K3.3_C3.2_H3.3_A3.1_F3.1_T3.2_[T9C]_[A10T] (ssRNA)
RNA: ACAAACCUACACUAUACUACAAAC
B16: Id_ii_S3_P3E.4_K3.3_C3.2_[T-1C]_H3.3_A3.1_F3.1_T3.2_[T9C]_[A10G] (ssRNA)
RNA: ACAAACCCACACUAUACGACAAAC
B17: Id_ii_S3_P4E.3_K4.2_C4.2_[C-2G]_[T-1A]_H4.2_A4.1_F4.1_T4.2_[G10T]_[T11G] (ssRNA)
RNA: ACAAACGAUAUAUAUUAUGACAAAC
B18: Id_ii_S3_P4E.3_K4.2_C4.2_[C-2G]_[T-1A]_H4.2_A4.1_F4.1_T4.2_[G10A]_[T11C] (ssRNA)
RNA: ACAAACGAUAUAUAUUAACACAAAC
B19: Id_ii_S3_P3E.4_K3.3_C3.2_[T-1G]_H3.3_A3.1_F3.1_T3.2_[T9C]_[A10T] (ssRNA)
RNA: ACAAACCGACACUAUACUACAAAC
B20: Id_ii_S3_P3E.4_K3.3_C3.2_[C-2T]_H3.3_A3.1_F3.1_T3.2_[T9G]_[A10C] (ssRNA)
RNA: ACAAACUUACACUAUAGCACAAAC
B21: Ib_S1_P5E.1_K5.1_C5.1_H5.1_A5.1_[T6A]_F5.1_[A10C]_T5.1 (ssRNA)
RNA: UCUCUUUGUAUAAUUCUCUCUU
B22: Id_ii_S3_P3E.4_K3.3_C3.2_[C-2A]_[T-1C]_H3.3_A3.1_F3.1_T3.2_[A10T] (ssRNA)
RNA: ACAAACACACACUAUAUUACAAAC
B23: Id_ii_S3_P3E.4_K3.3_C3.2_[C-2A]_[T-1G]_H3.3_A3.1_F3.1_T3.2_[A10T] (ssRNA)
RNA: ACAAACAGACACUAUAUUACAAAC
B24: Id_ii_S3_P3E.4_K3.3_C3.2_[C-2A]_[T-1A]_H3.3_A3.1_F3.1_T3.2_[T9G]_[A10G] (ssRNA)
RNA: ACAAACAAACACUAUAGGACAAAC
B25: Id_ii_S3_P3E.4_K3.3_C3.2_[C-2T]_H3.3_A3.1_F3.1_T3.2_[A10T] (ssRNA)
RNA: ACAAACUUACACUAUAUUACAAAC
B26: Id_ii_S3_P4E.3_K4.2_C4.2_[C-2G]_[T-1A]_H4.2_A4.1_F4.1_T4.2_[G10C]_[T11C] (ssRNA)
RNA: ACAAACGAUAUAUAUUACCACAAAC
B27: Id_ii_S3_P3E.4_K3.3_C3.2_[C-2A]_H3.3_A3.1_F3.1_T3.2_[T9G] (ssRNA)
RNA: ACAAACAUACACUAUAGAACAAAC
B28: Id_ii_S3_P3E.4_K3.3_C3.2_H3.3_A3.1_F3.1_T3.2_[T9G] (ssRNA)
RNA: ACAAACCUACACUAUAGAACAAAC
B29: Id_ii_S3_P3E.4_K3.3_C3.2_[T-1C]_H3.3_A3.1_F3.1_T3.2_[T9A]_[A10G] (ssRNA)
RNA: ACAAACCCACACUAUAAGACAAAC

This series addresses T1, PUF4 RNA-binding domain (Saccharomyces cerevisiae, UniProt P25339 537-888).
T1 sequence: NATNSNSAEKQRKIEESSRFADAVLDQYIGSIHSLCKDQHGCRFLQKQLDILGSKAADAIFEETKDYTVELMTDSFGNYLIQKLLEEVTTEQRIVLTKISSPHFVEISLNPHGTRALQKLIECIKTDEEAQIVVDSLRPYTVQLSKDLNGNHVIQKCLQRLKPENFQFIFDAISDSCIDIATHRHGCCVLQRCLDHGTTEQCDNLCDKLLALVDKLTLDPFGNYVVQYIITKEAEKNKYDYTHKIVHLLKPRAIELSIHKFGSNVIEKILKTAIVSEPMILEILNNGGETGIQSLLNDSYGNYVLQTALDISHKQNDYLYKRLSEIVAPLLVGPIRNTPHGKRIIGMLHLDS
Put plainly: Mg; RNA-MaP; 20 mM Na-HEPES pH 7.4, 30 mM KOAc, 0.75 mM MgCl2, 0.1% Tween-20, 5% glycerol, 0.1 mg/mL BSA, 2 mM DTT; 25 C; 0.0125-409.6 nM protein. Conditions: tags: N-His6-TEV cleaved; C-SNAP kept, Cy3B-labelled; label: tethered on chip by stalled RNA polymerase.
Molecule B1 displayed a Kd above 2.3 µM.
The value for B2 was 2.24 µM.
For the molecule B3, the dissociation constant (Kd) is above 2.3 µM.
The value for B4 was 0.0504 µM; that for B5 was 0.0767 µM.
In the case of B6, the dissociation constant (Kd) is above 2.3 µM.
B7 showed a Kd of 2.08 µM.
With B8, the affinity, expressed as Kd, was 1.07 µM.
The value for B9 was 0.0271 µM.
As for B10, the affinity, expressed as Kd, was 1.68 µM.
In the case of B11 it was above 2.3 µM.
B12 registered a Kd of 2.26 µM.
On to B13, for which the Kd was above 2.3 µM.
For B14, the Kd stood at 0.0417 µM.
B15 displayed a Kd above 2.3 µM.
Take B16: the Kd was above 2.3 µM.
The value for B17 was 0.0486 µM; that for B18 was 0.0529 µM.
B19: the Kd was above 2.3 µM.
In the case of B20 it was 2.17 µM.
In the case of B21 it was 0.0106 µM; in that of B22, 1.65 µM; in that of B23, 2.2 µM.
B24 gave a Kd above 2.3 µM.
B25 returned a Kd of 0.959 µM. That is a sub-micromolar value.
The value for B26 was 0.0531 µM; that for B27 was 1.31 µM; that for B28 was above 2.3 µM.
The value for B29 was above 2.3 µM.
